Measurements as given in IntAct's records for PubMed 27487388.

B1: Microsomal triglyceride transfer protein large subunit (Homo sapiens), P55157 (parent)
chain: MILLAVLFLCFISSYSASVKGHTTGLSLNNDRLYKLTYSTEVLLDRGKGKLQDSVGYRISSNVDVALLWRNPDGDDDQLIQITMKDVNVENVNQQRGEKSIFKGKSPSKIMGKENLEALQRPTLLHLIHGKVKEFYSYQNEAVAIENIKRGLASLFQTQLSSGTTNEVDISGNCKVTYQAHQDKVIKIKALDSCKIARSGFTTPNQVLGVSSKATSVTTYKIEDSFVIAVLAEETHNFGLNFLQTIKGKIVSKQKLELKTTEAGPRLMSGKQAAAIIKAVDSKYTAIPIVGQVFQSHCKGCPSLSELWRSTRKYLQPDNLSKAEAVRNFLAFIQHLRTAKKEEILQILKMENKEVLPQLVDAVTSAQTSDSLEAILDFLDFKSDSSIILQERFLYACGFASHPNEELLRALISKFKGSIGSSDIRETVMIITGTLVRKLCQNEGCKLKAVVEAKKLILGGLEKAEKKEDTRMYLLALKNALLPEGIPSLLKYAEAGEGPISHLATTALQRYDLPFITDEVKKTLNRIYHQNRKVHEKTVRTAAAAIILNNNPSYMDVKNILLSIGELPQEMNKYMLAIVQDILRFEMPASKIVRRVLKEMVAHNYDRFSRSGSSSAYTGYIERSPRSASTYSLDILYSGSGILRRSNLNIFQYIGKAGLHGSQVVIEAQGLEALIAATPDEGEENLDSYAGMSAILFDVQLRPVTFFNGYSDLMSKMLSASGDPISVVKGLILLIDHSQELQLQSGLKANIEVQGGLAIDISGAMEFSLWYRESKTRVKNRVTVVITTDITVDSSFVKAGLETSTETEAGLEFISTVQFSQYPFLVCMQMDKDEAPFRQFEKKYERLSTGRGYVSQKRKESVLAGCEFPLHQENSEMCKVVFAPQPDSTSSGWF
partner: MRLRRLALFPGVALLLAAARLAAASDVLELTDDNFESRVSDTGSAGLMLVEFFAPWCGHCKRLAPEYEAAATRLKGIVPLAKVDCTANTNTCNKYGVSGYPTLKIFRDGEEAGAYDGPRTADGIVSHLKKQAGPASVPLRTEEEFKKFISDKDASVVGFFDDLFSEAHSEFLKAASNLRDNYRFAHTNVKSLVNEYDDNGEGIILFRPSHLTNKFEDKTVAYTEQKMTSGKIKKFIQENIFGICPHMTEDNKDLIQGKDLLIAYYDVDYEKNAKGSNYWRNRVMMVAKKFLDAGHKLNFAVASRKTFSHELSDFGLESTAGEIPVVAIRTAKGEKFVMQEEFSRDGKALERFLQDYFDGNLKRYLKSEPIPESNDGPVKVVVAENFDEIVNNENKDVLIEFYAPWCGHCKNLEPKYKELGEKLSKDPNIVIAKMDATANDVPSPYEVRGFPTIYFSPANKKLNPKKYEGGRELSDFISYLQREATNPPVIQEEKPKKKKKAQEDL
B2: Microsomal triglyceride transfer protein large subunit (Homo sapiens), P55157 (parent)
chain: B1 chain

Variants of: B1
Conditions: with pdia3_chlae PDIA3, Q4VIT4

Row | effect of a mutation on the interaction | Variant
1 | disrupting interaction strength | D361Y

Variants of: B1
Conditions: with pdia3_chlae PDIA3, Q4VIT4
Remark: another data set of the same source

Row | effect of a mutation on the interaction | Variant
2 | decreasing interaction strength | D361Y
3 | with no effect | D361E

Variants of: B2
Conditions: with apob_human APOB

Row | effect of a mutation on the interaction | Variant
4 | with no effect | D361Y
5 | with no effect | D361E

Variants of: B2
Conditions: with apob_human APOB
Remark: another data set of the same source

Row | effect of a mutation on the interaction | Variant
6 | increasing interaction strength | D361E
